Patent publication US20040005688

Experiments:
[1] = molecular target: T1, Dishevelled (Dsh) protein, endogenous, from Drosophila embryos and Clone-8 cells
T1 chain: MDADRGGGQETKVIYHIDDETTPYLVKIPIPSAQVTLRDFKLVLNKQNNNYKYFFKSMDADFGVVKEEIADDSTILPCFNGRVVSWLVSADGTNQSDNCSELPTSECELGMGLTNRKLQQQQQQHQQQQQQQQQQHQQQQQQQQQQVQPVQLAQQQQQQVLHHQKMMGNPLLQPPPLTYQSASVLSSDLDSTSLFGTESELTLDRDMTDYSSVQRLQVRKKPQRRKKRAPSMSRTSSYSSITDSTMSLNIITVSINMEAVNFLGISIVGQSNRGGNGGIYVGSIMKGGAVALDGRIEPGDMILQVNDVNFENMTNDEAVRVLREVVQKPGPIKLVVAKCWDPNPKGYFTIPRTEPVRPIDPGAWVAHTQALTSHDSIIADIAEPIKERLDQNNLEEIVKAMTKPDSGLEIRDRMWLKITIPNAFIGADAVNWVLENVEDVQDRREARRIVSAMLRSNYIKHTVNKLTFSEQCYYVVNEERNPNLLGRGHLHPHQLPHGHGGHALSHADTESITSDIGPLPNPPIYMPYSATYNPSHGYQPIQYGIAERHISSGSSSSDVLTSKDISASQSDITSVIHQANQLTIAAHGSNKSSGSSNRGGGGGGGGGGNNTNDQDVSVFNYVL

[2] = molecular target: T2, GST-DM5 (GST fusion of the 36 amino acid DM5 segment of Dsh, amino acids 214-249)
T2 chain: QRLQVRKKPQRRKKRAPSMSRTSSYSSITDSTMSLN

B1: Dishevelled Associated Kinase (DAK), endogenous kinase activity from Drosophila embryo and Clone-8 cell lysates (protein)
chain: MSTAMRTTLQSVPEALPADSVSNGTASNVAAPAAPVSSATNAVPPLAAVSSTTATYATNSISTSSHSVKDQQQQQQQQQHDSANANIVSLPPTTTPVANTNTMMPIVTSSNSATSNSTAATPTPASGAAATGGVGSVSQGPATVSASAANTNHSHQHSHQHHHHVANNMTTDGARLSSNNSAVVASSAINHHHHHTPGSGVAPTVNKNVLSTHSAHPSAIKQRTSSAKGSPNMQMRSSAPMRWRATEEHIGKYKLIKTIGKGNFAKVKLAKHLPTGKEVAIKIIDKTQLNPGSLQKLFREVRIMKMLDHPNIVKLFQVIETEKTLYLIMEYASGGEVFDYLVLHGRMKEKEARVKFRQIVSAVQYCHQKRIIHRDLKAENLLLDSELNIKIADFGFSNEFTPGSKLDTFCGSPPYAAPELFQGKKYDGPEVDVWSLGVILYTLVSGSLPFDGSTLRELRERVLRGKYRIPFYMSTDCENLLRKFLVLNPAKRASLETIMGDKWMNMGFEEDELKPYIEPKADLADPKRIEALVAMGYNRSEIEASLSQVRYDDVFATYLLLGRKSTDPESDGSRSGSSLSLRNISGNDAGANAGSASVQSPTHRGVHRSISASSTKPSRRASSGAETLRVGPTNAAATVAAATGAVGAVNPSNNYNAAGSAADRASVGSNFKRQNTIDSATIKENTARLAAQNQRPASATQKMLTTADTTLNSPAKPRTATKYDPTNGNRTVSGTSGIIPRRSTTLYEKTSSTEKTNVIPAETKMASAVKSSRHFPRNVPSRSTFHSGQTRARNNTALEYSGTSGASGDSSHPGRMSFFSKLSSRFSKRPNQ
- in vitro kinase assay of Dsh immunoprecipitates [1]: Immunoprecipitated Dsh was phosphorylated in this assay.
- in-gel kinase assay [2]: A polypeptide of 110 kDa appeared to account for the major DAK activity and two polypeptides of approximately 125 and 64 kDa appeared to represent minor activity.
